Drawing on patent publication US20070031863A1, this text covers IgG synthesis by purified B cells stimulated with LPS (control) for one substance.

The target of this assay is CD70 (human) (UniProt P32970). The experiment in a line: cell-based or functional assay.
Chain of CD70 (human) (P32970 whole entry): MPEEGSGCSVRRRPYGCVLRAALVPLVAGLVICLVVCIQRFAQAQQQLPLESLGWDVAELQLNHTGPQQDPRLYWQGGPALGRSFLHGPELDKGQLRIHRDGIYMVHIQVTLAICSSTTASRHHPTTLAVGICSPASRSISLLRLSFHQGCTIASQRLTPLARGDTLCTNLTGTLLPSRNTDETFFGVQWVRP

With “anti-CD70 monoclonal antibody (HNE51) (Dako)”, the IgG synthesis by purified B cells stimulated with LPS (control) was determined as 125 µg/mL.
